Where a chain is given by its changes, count along the chain named.
B1: X1 (antibody, V domains shown)
VH: QVQLVQSGAEVKKPGSSVKVSCKASGYNFLHYDVNWVRQAPGQGLEWMGGIIPIFGTANYAQKFQGRVTITADESTSTAYMELSSLRSEDTAVYYCATAVGAGWFDTWGQGTLVTVSS
VL: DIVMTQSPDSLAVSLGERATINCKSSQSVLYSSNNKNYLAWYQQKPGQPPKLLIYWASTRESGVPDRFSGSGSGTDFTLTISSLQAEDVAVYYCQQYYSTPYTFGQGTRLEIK
notes: conditioned media in the HEK293F assays
B2: X12 (antibody, human IgG4, V domains shown)
VH: B1 VH
VL: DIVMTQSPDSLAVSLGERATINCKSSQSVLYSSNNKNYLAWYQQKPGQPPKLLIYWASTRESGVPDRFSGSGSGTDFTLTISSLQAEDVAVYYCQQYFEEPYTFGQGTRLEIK
notes: as for B1
B3: X7 (antibody, human IgG4, V domains shown)
VH: B1 VH with H31N, A99G, T107P
VL: DIVMTQSPDSLAVSLGERATINCKSSQSVFFDENNKNYLAWYQQKPGQPPKLLIYWASTRESGVPDRFSGSGSGTDFTLTISSLQAEDVAVYYCQQYFEEPYTFGQGTRLEIK
notes: as for B1
B4: X14 (antibody, human IgG4, V domains shown)
VH: B1 VH
VL: B3 VL with F30Y, D32S, E33P
notes: as for B1
B5: X0 (PA-29) (antibody, V domains shown)
VH: B1 VH with H31N, A99G, T107P
VL: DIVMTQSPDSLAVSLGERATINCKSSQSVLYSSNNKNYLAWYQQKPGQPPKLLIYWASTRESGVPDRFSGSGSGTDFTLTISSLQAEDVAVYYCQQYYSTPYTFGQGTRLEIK
notes: conditioned media in the HEK293F assays; also called parental X0 (PA-29) antibody; XO (PA-29)
B6: X20 (antibody, human IgG4, V domains shown)
VH: B1 VH with T107P
VL: B3 VL with F30Y, D32S, F98Y
notes: as for B1
B7: X18 (antibody, human IgG4, V domains shown)
VH: B1 VH
VL: B3 VL with F30W, E33P
notes: as for B1
B8: X16 (antibody, human IgG4, V domains shown)
VH: B1 VH
VL: B3 VL with F30Y, E33V
notes: as for B1
B9: X22 (antibody, human IgG4, V domains shown)
VH: B1 VH with A99G, T107P
VL: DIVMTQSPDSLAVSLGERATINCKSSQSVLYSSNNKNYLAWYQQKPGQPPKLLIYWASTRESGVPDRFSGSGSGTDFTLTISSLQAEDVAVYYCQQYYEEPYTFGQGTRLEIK
B10: X21 (antibody, human IgG4, V domains shown)
VH: B1 VH with A99G, T107P
VL: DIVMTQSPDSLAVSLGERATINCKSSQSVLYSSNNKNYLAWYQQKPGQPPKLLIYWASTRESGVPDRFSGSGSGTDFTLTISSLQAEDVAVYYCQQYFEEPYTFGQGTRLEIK

Target: T1, human PILRA G78 on HEK293F cells (human, UniProt Q9UKJ1 20-303)
T1 construct: also called hA; G78 OE
Experiment: flow cytometry blocking assay; antibody on HEK293F cells overexpressing human PILRA G78, then 5 ug/mL NPDC1 Fc as the blocked ligand; cell-bound NPDC1 Fc read as MFI
Protocol: A dose response curve of antibodies X0 (PA-29), X1, X2, X7, X11, X12, X13, X14, X16, X18, and X20 was assessed for modulating the binding of Neural Proliferation Differentiation and Control Protein 1 (NPDC1) Fc to 293 cells ectopically expressing human PILRA (HEK293F human PILRA G78 overexpressing cells). Conditioned media samples containing antibodies were incubated with human PILRA overexpressing cells for 30 minutes at 4° C., and then 5 μg/mL NPDC1 Fc was added to this mixture. After 30 minutes of incubation at 4° C., the cells were washed and cell-bound NPDC1 Fc was detected with anti-human IgG Alexa Fluor 647. The cells were analyzed by flow cytometry on FACS Canto II with the percentage of NPDC1 Fc binding in the presence of conditioned media relative to NPDC1 Fc binding alone was calculated. […] All tested antibodies decreased binding of NPDC1 to human PILRA.

T1 sequence (Q9UKJ1 20-303 R78G): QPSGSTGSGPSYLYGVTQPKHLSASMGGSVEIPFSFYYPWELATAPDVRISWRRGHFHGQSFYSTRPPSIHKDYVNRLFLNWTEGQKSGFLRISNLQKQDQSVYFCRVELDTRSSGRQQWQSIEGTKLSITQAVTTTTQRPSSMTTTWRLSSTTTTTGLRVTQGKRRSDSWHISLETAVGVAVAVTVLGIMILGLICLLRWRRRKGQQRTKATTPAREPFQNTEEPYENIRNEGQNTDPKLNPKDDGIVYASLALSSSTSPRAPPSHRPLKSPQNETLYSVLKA

IC50 (read off the curve) | Binder
~0.07 µg/mL | B1
~0.08 µg/mL | B2
~0.08 µg/mL | B3
~0.02 µg/mL | B4

Target: T1, human PILRA G78 on HEK293F cells
Experiment: FACS on HEK293F cells, binding on human PILRA (hA) over human PILRB (hB)
Protocol: (§1) Conditioned media samples containing the tested anti-PILRA antibodies were assessed for binding to HEK293F cells overexpressing human PILRA (hA), human PILRB (hB), and cynomolgus PILRA (cA) by FACS. The conditioned media containing the tested antibodies were incubated with the cells for 30 min at 4° C., washed twice, and then detected with goat anti-human IgG secondary antibody (Alexa Fluor 647) at 1:1000 dilution. The cells were analyzed by flow cytometry on FACS Canto II, and for all cell lines, the reported MFI values were calculated for each conditioned media. These antibodies were evaluated for nonspecific binding using a baculovirus particle (BVP) assay (Jain T., Sun T., Durand S., Hall A., Houston N. R., Nett J. H., Sharkey B., Bobrowicz B., Caffry L, Yu Y., et al. Biophysical properties of the clinical-stage antibody landscape. Proc. Natl. Acad. Sci. USA. 2017; 114:944-949. Doi: 10.1073/pnas.1616408114.). The BVP scores are listed in Table 9, and the higher the score the more nonspecific binding that occurred.

hA/hB binding ratio on HEK293F | Binder
108 | B5
6.7 | B6
56.7 | B1
14.4 | B2
63 | B3
7.9 | B4
6.5 | B7
6.1 | B8

Target: T2, cell surface PILRA on human monocytes (human, UniProt Q9UKJ1 20-303)
T2 construct: Native PILRA on CD14+ monocytes of healthy donors; also called human PILRA; hu mono
Experiment: flow cytometry; Alexa Fluor 647-conjugated antibody on human CD14+ monocytes, Fc receptors blocked, 30 min on ice
Protocol: (§2) Anti-human PILRA antibodies X0 (PA-29) and its affinity matured variants were tested for their abilities to bind cell surface PILRA on human and cynomolgus monocytes. CD14+ monocytes were isolated from healthy human donors using a RosetteSep Human Monocyte Enrichment Cocktail kit (StemCell). Cynomolgus white blood cells were collected from cynomolgus whole blood. In both human and cynomolgus samples, the Fc receptor on the tested monocytes was blocked and the monocytes were treated with Alexa Fluor 647-conjugated PILRA antibodies for 30 minutes on ice. A dose response curve of antibodies X0 (PA-29), X1, X2, X7, X11, X12, X13, X14, X16, X18, and X20 was tested for binding to cell surface PILRA in human and cynomolgus monocytes, and antibodies bound to PILRA in a dose response manner. In another sample of human donor monocytes, a dose response curve of antibodies X0 (PA-29), X1, X2, X11, X13, X18, X29 (PA-43), and X34 (A6) was tested for binding to cell surface PILRA in human and cynomolgus monocytes, and antibodies bound to PILRA in a dose response manner.

T2 sequence (Q9UKJ1 20-303): as the sequence (Q9UKJ1 20-303 R78G) above, with G59R counted along it

EC50 (read off the curve) | Binder
~0.2 µg/mL | B1
~0.1 µg/mL | B2
~0.2 µg/mL | B3
~0.1 µg/mL | B4

Target: T2, cell surface PILRA on human monocytes
Experiment: flow cytometry; Alexa Fluor 647-conjugated antibody on human CD14+ monocytes (second donor sample), Fc receptors blocked, 30 min on ice
Protocol: as §2

EC50 (read off the curve) | Binder
~0.1 µg/mL | B1
~0.1 µg/mL | B7

Target: cynomolgus PILRA on HEK293F cells (cynomolgus monkey, UniProt A0A7N9CRU1 20-292)
Experiment: cA Kd of Table 9; method not stated (Example 8: HEK293F overexpressing cells, FACS)

Sequence of cynomolgus PILRA on HEK293F cells (A0A7N9CRU1 entry or part of it): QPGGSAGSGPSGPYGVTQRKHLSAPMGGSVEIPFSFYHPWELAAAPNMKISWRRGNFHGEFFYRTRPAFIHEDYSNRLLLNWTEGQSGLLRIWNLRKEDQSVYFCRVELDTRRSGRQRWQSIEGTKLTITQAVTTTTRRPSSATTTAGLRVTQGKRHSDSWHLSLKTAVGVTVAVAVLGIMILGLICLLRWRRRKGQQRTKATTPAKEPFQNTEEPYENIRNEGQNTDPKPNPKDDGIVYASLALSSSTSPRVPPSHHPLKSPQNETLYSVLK

Kd | Binder
192 nM | B5
5.3 nM | B1
0.3 nM | B2
2 nM | B3
0.3 nM | B4
0.2 nM | B7

Target: T3, recombinant human PILRB (human, UniProt Q9UKJ0 20-191)
Experiment: SPR, Biacore T200, antibody captured by anti-Fab
Protocol: (§3) A subset of these antibodies was further evaluated using the Biacore T200 (Cytiva). Anti-PILRA antibodies were diluted to 10 μg/mL and captured using an anti-Fab (Cytiva, #28958325) surface on a CM4 chip, that was prepared by amine coupling according to the manufacturer's protocol. Human PILRA and cynomolgus PILRB were diluted in running buffer to 130 nM, and diluted 4-fold serially, twice, to 8 nM. Human PILRB was similarly diluted from 260 nM to 16 nM. These analytes were injected and allowed 2 minutes of association, followed by dissociation for 5 minutes.
(§4) Data were analyzed using Biacore evaluation software to generate kinetic constants. The equilibrium dissociation constants (KD) were calculated from the fitted association and dissociation rate constants (k-on and k-off) for each of the anti-PILRA antibodies. These Kn values are indicated with asterisks in Table 8 below.

T3 sequence (Q9UKJ0 20-191 limits assumed): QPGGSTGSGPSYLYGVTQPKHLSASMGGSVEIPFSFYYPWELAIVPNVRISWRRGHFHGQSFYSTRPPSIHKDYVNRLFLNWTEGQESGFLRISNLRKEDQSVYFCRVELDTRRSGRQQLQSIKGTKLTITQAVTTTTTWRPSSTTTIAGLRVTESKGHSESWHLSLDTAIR

Kd | Binder
128 nM | B1
28 nM | B2
14 nM | B9

Target: T4, recombinant human PILRA (human, UniProt Q9UKJ1 20-197)
Experiment: SPR, Biacore T200, antibody captured by anti-Fab
Protocol: as §3, §4

T4 sequence (Q9UKJ1 20-197 limits assumed): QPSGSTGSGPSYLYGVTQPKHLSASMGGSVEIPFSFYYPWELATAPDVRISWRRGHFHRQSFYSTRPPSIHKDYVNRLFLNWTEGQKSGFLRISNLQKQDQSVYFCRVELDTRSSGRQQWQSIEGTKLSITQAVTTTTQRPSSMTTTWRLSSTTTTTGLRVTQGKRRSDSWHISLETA

Kd | Binder
294 nM | B5
1.9 nM | B10
1.6 nM | B1
0.3 nM | B2
6.2 nM | B9

Target: T1, human PILRA G78 on HEK293F cells
Experiment: flow cytometry; HEK293F cells overexpressing human PILRA, goat anti-human IgG Alexa Fluor 647
Protocol: as §1

EC50 (read off the curve) | Binder
~0.3 µg/mL | B5
~0.3 µg/mL | B1
~0.5 µg/mL | B7

Target: T3, recombinant human PILRB
Experiment: SPR, Carterra LSA, steady-state fit
Protocol: (§5) Binding kinetics of human anti-PILRA-IgG4 antibodies were evaluated by surface plasmon resonance (SPR) using a Carterra LSA instrument (Carterra, Salt Lake City, UT). Antibodies were immobilized in duplicate arrays onto an HC30M sensor chip (Carterra) by amine coupling according to the manufacturer's protocol. After priming the immobilized antibodies with HBS-EP+ (Teknova, Hollister, CA, #8022) running buffer with 0.5 mg/mL BSA (MP Biomedicals LLC, #820451), the immobilized antibodies were tested for their ability to bind to recombinant human PILRA (SEQ ID NO:1) and cynomolgus PILRA (SEQ ID NO:120) and to human PILRB (SEQ ID NO:105) and cynomolgus PILRB (SEQ ID NO:121).
(§6) For binding kinetics analysis, human and cynomolgus PILRA and PILRB analytes were diluted in running buffer to 440 to 470 nM, and diluted 3-fold serially five times, to 1.8 to 1.9 nM, and injected for five minutes over the entire chip using the single channel flow cell to measure association of binding to the immobilized antibodies. Dissociation of the analytes was measured for five minutes, followed by regeneration of the chip with two 30-second injections of 10 mM glycine pH 2.0.
For the human PILRB interactions, the binding was too weak and heterogenous for kinetic constants to be calculated in this assay. Therefore, steady-state affinities were estimated based on the binding level of each analyte concentration at the end of the injections.

binding result | Kd | Binder
no binding |  | B5
 | 43 nM | B10
 | 2 nM | B6
 | 39 nM | B1
 | 12 nM | B2
 | 77 nM | B3
 | 54 nM | B9
 | 4 nM | B4
 | 4 nM | B7
 | 2 nM | B8

Target: T4, recombinant human PILRA
Experiment: SPR, Carterra LSA, antibody amine-coupled, kinetic fit
Protocol: as §5, §6

Kd | Binder
233 nM | B5
1.8 nM | B10
0.5 nM | B6
2.5 nM | B1
1 nM | B2
3.8 nM | B3
2.2 nM | B9
1.1 nM | B4
1.3 nM | B7
0.5 nM | B8

Target: T5, recombinant cynomolgus PILRA (SEQ ID NO:120) (cynomolgus monkey)
T5 construct: also called cyno PILRA
Experiment: as above
Protocol: as §5, §6

T5 sequence (chain, as listed by the source limits assumed): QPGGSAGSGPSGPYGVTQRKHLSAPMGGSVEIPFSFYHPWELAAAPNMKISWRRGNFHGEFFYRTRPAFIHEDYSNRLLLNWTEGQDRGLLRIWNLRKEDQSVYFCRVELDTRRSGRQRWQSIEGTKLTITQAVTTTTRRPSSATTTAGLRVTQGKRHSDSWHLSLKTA

Kd | Binder
17 nM | B5
0.1 nM | B10
0.1 nM | B6
1.6 nM | B1
0.2 nM | B2
0.4 nM | B3
0.2 nM | B9
0.1 nM | B4
0.2 nM | B7
0.1 nM | B8

Target: T2, cell surface PILRA on human monocytes
Experiment: cell-based or functional assay

Hu Mono DR EC50 | Binder
0.7 µg/mL | B5
~0.02 µg/mL | B6
0.02 µg/mL | B1
~0.02 µg/mL | B2
0.9 µg/mL | B3
~0.02 µg/mL | B4
~0.02 µg/mL | B7
0.005 µg/mL | B8

Target: T1, human PILRA G78 on HEK293F cells
Experiment: hA Kd of Table 9; method not stated (Example 8: HEK293F overexpressing cells, FACS)

Kd | Binder
78.7 nM | B5
0.4 nM | B1
0.1 nM | B2
1.2 nM | B3
0.1 nM | B4
0.1 nM | B7

Target: T6, human PILRB on HEK293F cells (human, UniProt Q9UKJ0 20-227)
T6 construct: also called hB
Experiment: hB Kd of Table 9; method not stated (Example 8: HEK293F overexpressing cells, FACS)

T6 sequence (Q9UKJ0 20-227): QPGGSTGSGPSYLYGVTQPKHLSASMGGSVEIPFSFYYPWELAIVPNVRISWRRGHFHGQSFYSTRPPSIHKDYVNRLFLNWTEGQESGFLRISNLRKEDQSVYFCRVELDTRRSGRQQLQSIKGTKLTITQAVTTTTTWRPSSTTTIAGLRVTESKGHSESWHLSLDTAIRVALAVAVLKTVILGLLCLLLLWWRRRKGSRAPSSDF

Kd | Binder
126 nM | B1
36.7 nM | B2
6.6 nM | B4
3.4 nM | B7

Source: patent US20260070976A1 (Alector, published 2026)
